# B1: Hammerhead Ribozyme (parent)
# chain: ACCGGAUGUGCUUUCCGGUCUGAUGAGUCCGUGAGGACGAAACAG
# Variants of: B1
# Experiment: self-cleavage, relative activity (ratio to wild type); higher = more cleavage; co-transcriptional
row,Variant,self-cleavage
1,G31A A37G,0.978
2,G31A A37U,0.866
3,A34U C38G,0.403
4,U19G A41G,0.345
5,C20G A37U,0.272
6,G25C A41U,0.319
7,G17U G18A,0.419
8,G5C A23G,0.324
9,U7G G39A,0.369
10,A34G G45U,0.544
11,U14G G25U,0.28
12,G35A G39C,0.346
13,U21A G33A,0.808
14,G10U G22U,0.351
15,A1U A26C,0.402
16,C11U G17C,0.43
17,G5A A23C,0.315
18,C15G U32C,0.804
19,U21G A40U,0.331
20,A1G U7G,1.4
21,U14G A42C,0.382
22,G10U G45C,0.828
23,G22U G31U,0.318
24,G22U G31C,0.303

row,Variant,self-cleavage
1,G8A C30A,0.929
2,C3U A34U,0.947
3,A26U G31C,0.633
4,G4U C29U,0.413
5,A1C C20G,0.354
6,G4A A34C,0.35
7,C15A A40G,0.415
8,A23U C30A,0.463
9,U7C G18U,0.61
10,U12C G18C,0.5
11,G4A C30U,0.526
12,C3G U28G,0.356
13,A23G A42G,0.324
14,G17C U24C,0.457
15,C29U C43U,0.47
16,G17A U32A,0.62
17,U19A G33U,0.398
18,A34C G39A,0.288
19,U13C C15A,0.834
20,G33U C43G,0.449
21,A6C G17A,0.348
22,U14C U24C,0.889
23,A6C U13A,0.906
24,U9A G25A,0.345

row,Variant,self-cleavage
1,U14G U21G,0.572
2,G5U C43U,0.371
3,G4A U24C,0.59
4,C15U G18U,0.643
5,U12G A41C,0.276
6,U32A G45C,0.593
7,A23U U24G,0.251
8,C20G G36U,0.305
9,G31C C38U,0.94
10,G4A G8A,0.555
11,G17C U21G,0.352
12,U19G A42C,0.424
13,G27A U28G,0.695
14,G27A U28A,0.643
15,C3G G4C,0.289
16,C15G U28A,0.389
17,C30U G31C,1.11
18,G18A A34G,0.562
19,C16U U21G,0.588
20,C11G C43G,0.29
21,U14G C16A,0.642
22,C20G A40G,0.324
23,G25C G39A,0.33
24,C20A G36A,0.33

row,Variant,self-cleavage
1,G4U U28A,0.234
2,G25U C29U,0.273
3,G27A C30U,0.69
4,G18C U19C,0.375
5,G27U A42C,0.294
6,C15U C30A,0.696
7,U13A U32G,1.3
8,C29G G36C,0.799
9,A6U C30G,0.525
10,G25A G39U,0.351
11,C29A G33C,0.442
12,C29A G33U,0.674
13,G22C G39A,0.364
14,C20U C43U,0.325
15,A6U G22C,0.354
16,G8U U24A,1.24
17,C15A U21C,0.373
18,G4U A26U,0.378
19,G10U U32A,0.896
20,G39U A42G,0.342
21,G17A G27C,0.399
22,C3G G36C,0.328
23,A26U U28G,0.437
24,U12G C30G,0.706

row,Variant,self-cleavage
1,A26C C43G,0.31
2,U24C A26G,0.401
3,G18C G36U,0.337
4,U13A U24C,1.07
5,G27C G33C,0.723
6,G8U C43A,0.254
7,A44G,1.53
8,U7C A42G,0.306
9,U24C A41G,0.358
10,A6U G36C,0.334
11,G4C C16U,1.39
12,U24A G31U,0.927
13,U7A A42U,0.257
14,G27A A41G,0.361
15,U9A U28A,0.803
16,C20A A26C,0.397
17,U9G C16U,0.848
18,C3U G31U,1.17
19,U19A G27U,0.26
20,G4C G8U,0.353
21,C2U U7A,1.58
22,C3U U21A,0.747
23,U13C C20U,0.405
24,U32C A44C,0.678

row,Variant,self-cleavage
1,C15A C38U,0.814
2,U14G A37G,0.782
3,C15G C38U,0.633
4,G5C G27U,0.321
5,G5A U7A,0.95
6,A23U A37C,0.381
7,G31U U32G,0.871
8,G5U G31U,1.2
9,C15U A40C,0.385
10,U7C U32A,1.02
11,G5A U28A,0.364
12,G4U U32C,0.487
13,G39A A41G,0.383
14,U12G U24C,1.18
15,G10C G31U,1.19
16,C2U G35U,0.757
17,G8C G18C,0.564
18,C16G G25C,0.285
19,U7A C30G,1.05
20,G5A G39U,0.329
21,G8U U19C,0.649
22,G33C G36U,0.338
23,A23G G25C,0.333
24,G31C G35A,0.966

row,Variant,self-cleavage
1,C29U G35C,0.778
2,G5A C20U,1.01
3,C20A G39U,0.329
4,U13G U32C,0.986
5,A6G A44C,0.523
6,U14A G33C,0.987
7,C11G G35C,0.668
8,G4C G36A,0.282
9,G17C A42C,0.316
10,U21A G27A,0.363
11,U13C U19G,0.311
12,U13A C20G,0.354
13,G17U A37C,0.688
14,G5A G8U,1.33
15,G27U,0.561
16,G5U C29A,0.402
17,U13A G25A,0.326
18,G18C A37C,0.373
19,U14C A44C,0.489
20,G8U U12C,1.35
21,C11A A40C,0.587
22,A1U U28C,0.5
23,A6U A26C,0.393
24,C3A C20U,0.319

row,Variant,self-cleavage
1,G35U A40C,0.374
2,C2G A44G,0.627
3,G10A G36U,0.632
4,C29U G39A,0.406
5,A37C A42G,0.235
6,G22C A41C,0.321
7,C11U C43U,0.529
8,G4C U32G,0.324
9,C3G U21A,0.236
10,C20U U28G,0.596
11,C20A A34C,0.34
12,U13G G18C,0.696
13,C15U A44U,0.664
14,A1C G18U,0.353
15,G8C U12A,1.01
16,C2G U7C,0.373
17,U28A C38G,0.521
18,A37C C38U,0.546
19,A6C A34U,0.529
20,A1C U13G,0.556
21,U24G G25A,0.494
22,U32G A34C,0.805
23,U9C U24G,0.948
24,C38U A44G,1.44

row,Variant,self-cleavage
1,C16U G36C,0.375
2,G4C G25U,0.289
3,U13C A40U,0.277
4,C11A G25U,0.329
5,C2U G25C,0.345
6,C38G A41C,0.298
7,G33U G45C,0.752
8,G33U G45A,0.698
9,G5U U13C,1.15
10,G33A A41C,0.465
11,G4C G17C,0.291
12,G4C G17U,0.291
13,C20A G31A,0.576
14,G10U C30A,0.844
15,C3G C29G,0.345
16,G18U A23C,0.367
17,U19G G33A,0.551
18,U7A G36A,0.681
19,G35A A42C,0.354
20,U14G A34C,0.875
21,C16A C38A,0.631
22,G4C U7G,0.768
23,U32C A41G,0.311
24,G5C U28A,0.376

row,Variant,self-cleavage
1,G10U G39U,0.313
2,G4A C16G,0.977
3,U9G G31A,1.14
4,U13C G36C,0.336
5,C29U C30A,0.609
6,C11G G27C,0.938
7,U32A A44C,0.581
8,A37U,0.799
9,U7G G22U,0.369
10,U19C G25A,0.312
11,G5U G35C,0.361
12,U19A U24G,0.327
13,C11A A44G,1.57
14,C30U G33C,0.714
15,C30U,1.02
16,G8C G25A,0.284
17,C11U G22U,0.341
18,U28C A37G,0.914
19,A34U A40G,0.304
20,U21G U32G,0.549
21,G25U A37C,0.294
22,U14G U32A,0.811
23,G36U A42C,0.37
24,A34C A37G,0.588

row,Variant,self-cleavage
1,A34C A37C,0.426
2,U24A C43G,0.374
3,U24A A26U,0.756
4,U12A C29G,0.721
5,G5A A6C,0.483
6,A6C U9G,0.578
7,G25U U28G,0.314
8,U19G G39U,0.305
9,A26U C43U,0.382
10,C11U A26G,0.335
11,U21G G27U,0.296
12,C30A G31U,1.07
13,U19A A34C,0.32
14,C15U A23U,0.342
15,U13C G33U,1.14
16,U13C G33C,0.889
17,C29A C38U,0.652
18,G25U G33C,0.305
19,U7A G10A,1.33
20,C16G G22A,0.336
21,C11G U12C,1.07
22,G5U C16U,0.894
23,C20G U28C,0.261
24,C29A A37G,0.692

row,Variant,self-cleavage
1,U12A G31A,0.978
2,U24A A40C,0.421
3,C2U A26C,0.514
4,C16A A23G,0.357
5,C30G G36U,0.697
6,A37G A40G,0.274
7,A1U U32G,0.465
8,G4C G35U,0.426
9,G4C G35A,0.297
10,U12C A37U,0.727
11,G5C U7A,0.874
12,G5C U7C,0.72
13,G18A U19C,0.402
14,C30U G45C,1.05
15,A1G C11G,2.12
16,G18U G45U,0.475
17,C11U C15G,1.04
18,G10A U12A,0.985
19,G17U C20G,0.359
20,U12A G25U,0.331
21,U12A G25C,0.224
22,G10C U24C,0.853
23,A42G G45C,0.31
24,U9G A41U,0.306

row,Variant,self-cleavage
1,G31U G45C,0.819
2,U7A A40U,0.244
3,G18C A26U,0.334
4,C20G G39U,0.316
5,C30A G35U,1.17
6,C38G A44U,0.407
7,A34G G35C,0.771
8,U13A A40G,0.287
9,A1U G35U,0.451
10,C29U A37C,0.93
11,G5A U9G,0.88
12,C11U G18C,0.319
13,A37G A42U,0.32
14,A34U G39U,0.356
15,G17C U19G,0.337
16,C3U A40C,0.469
17,G35A A37U,0.414
18,C3U G22A,0.381
19,U7A G39C,0.321
20,A1U G10C,0.6
21,C20A G35U,0.345
22,U14C C15A,0.72
23,U7C U28A,0.504
24,A26C U28G,0.46

row,Variant,self-cleavage
1,A41U A44G,0.759
2,G25C U32G,0.281
3,G22C G45C,0.424
4,G10C U21A,0.533
5,U9G U28G,0.729
6,G25U A41U,0.337
7,G22U G39U,0.305
8,U9A G35C,1.05
9,U19A A26U,0.255
10,U13A C29G,0.922
11,C30G A44C,0.363
12,U24G G31A,0.992
13,A1G G10A,1.92
14,A42G C43U,0.326
15,C2G U9G,0.32
16,U9A G10A,1.38
17,G8C G10C,1.47
18,C29U A44G,1.27
19,G10C U28C,1.01
20,G5C U12A,0.788
21,A1U G45C,0.493
22,C16G U24C,0.942
